Experimental data published in patent publication US20030186281A1, “Modified tetracycline repressor protein compositions and methods of use” (priority 2001, published 2003).

Tested on: tet operator sequence
Assay: β-galactosidase activity of a tetracycline-regulated promoter in transformed E. coli with revTetR, in the presence and absence of anhydrotetracycline (atc)
Format: cell-based, Escherichia coli
Settings: for β-Galactosidase Activity, Cultured Without ATC: RevTetR isolate cultured in the absence of anhydrotetracycline (ATC); for β-Galactosidase Activity, Cultured With ATC: RevTetR isolate cultured in the presence of anhydrotetracycline (ATC)
Experimental: The relative activity of revTetR repressors was determined at 28° C. and 37° C. for each clone by measuring β-galactosidase activity of a tetracycline-regulated promoter in transformed Escherichia coli in the presence and absence of the tetracycline analog, anhydrotetracycline (atc). The relative β-galactosidase activity was measured in standard Miller units and is presented as the percent of maximal expression as measured in the absence of Tet repressor. […] With respect to each mutant, as well as the wild-type controls, FIG. 2 provides two horizontal bars; the upper horizontal bar represents the level of β-galactosidase activity in the absence of anhydrotetracycline (−atc) while the lower horizontal bar represents the level of β-galactosidase activity in the presence of anhydrotetracycline (+atc).
The pool of mutated Tet repressors was cloned into plasmid pWH1411 (Baumeister et al., 1992, Proteins: Struct. Funct. Genet. 14: 168-77), which carries a TetR(B) gene, to provide a TetR(BD) chimera that included, as the amino-terminal portion, amino acid residues 1 to 50 of the TetR(B) gene and, as the carboxyl-terminal portion, amino acid residues 51 to 208 of the TetR(D) gene. The resulting plasmid pool was screened in a genetic assay which positively selects for a functional interaction between a Tet repressor and its cognate operator using E. coli strain WH207(λWH25) (the construction of this strain is described in detail in Wissmann et al., (1991) Genetics 128: 225-32). In this E. coli strain, tet operators direct the expression of divergently arranged β-galactosidase (lacZ) and Lac repressor (lacI) genes and the lac regulatory region directs the expression of a galactokinase (galK) gene on plasmid pWH414. Binding of Tet repressors to tet operators turns off transcription of the lacI and lacZ genes. The absence of Lac repressor allows for expression of the galK gene, which enables the E. coli strain to use galactose as a sole carbon source, which serves as one marker. The lacZ^− phenotype serves as a second marker. Thus, bacteria containing Tet repressors which bind to tet operators, have a Gal^+, lacZ^− phenotype. Bacteria containing wild-type Tet repressors have a Gal^+, lacZ^− phenotype in the absence of tetracycline. Modified “reverse” Tet repressors (revTetR) were selected based upon a Gal^+, lacZ^− phenotype in the presence of tetracycline.
The ability of each revTetR clone to bind to its cognate tet operator sequence and regulate transcription in a prokaryotic organism, Escherichia coli, in the presence and absence of a tetracycline analog (anhydrotetracycline, atc) was determined (Table 3, FIG. 2). The relative ratios of non-repressed to repressed levels of transcription for the 15 clones range from about 1.4-fold to about 50-fold at 28° C. and from about 1.3-fold to 40-fold at 37° C. For example, clone 4b comprising an amino acid substitution of glutamic acid for glycine at position 96 (e.g., SEQ ID NO. 24) repressed transcription 19-fold at 37° C. but to a less extent at 28° C. (5.7-fold, Table 3). Furthermore, clones 14, 5a and 7 comprising the arginine for glycine substitution at position 96 and further comprising a substitution or substitutions of serine for threonine at position 103 and valine for glutamic acid at position 114; leucine for proline at position 159; or glutamine to histidine at position 188, respectively, have pronouncedly different activities.
wherein each underlined base was present in approximately 85% of the oligonucleotides, while the remaining approximately 15% of the oligonucleotides contained one of the other three, non-wild type bases at that position. Similar mutagenic, partially randomized oligonucleotides were prepared for mutagenesis of the coding regions for amino acids 14-25 and 93-102. It was predicted that, according to a binomial distribution, each oligonucleotide would contain three to four mutations. […]

| Molecule | β-Galactosidase Activity, Cultured Without ATC | β-Galactosidase Activity, Cultured With ATC |
| --- | --- | --- |
| TetRrevAF6/12: revTetR(BD) L14F E15E G96V K98E V99L L101P (protein, Modified tetracycline repressor, revTetR(BD) L14F E15E G96V K98E V99L L101P) MSRLDKSKVINSAFELLNEVGIEGLTTRKLAQKLGVEQPTLYWHVKNKRALLDALAVEILARHHDYSLPAAGESWQSFLRNNAMSFRRALLRYRDVAELHPGTRPDEKQYDTVETQLRFMTENGFSLRDGLYAISAVSHFTLGAVLEQQEHTAALTDRPAAPDENLPPLLREALQIMDSDDGEQAFLHGLESLIRGFEVQLTALLQIV | 82.6734 | 1.3259 |
| TetRrevAD3/8: revTetR(BD) L16L A56A V57E E58L I59N L60A (protein, Modified tetracycline repressor, revTetR(BD) L16L A56A V57E E58L I59N L60A) MSRLDKSKVINSALELLNEVGIEGLTTRKLAQKLGVEQPTLYWHVKNKRALLDALAELNVARHHDYSLPAAGESWQSFLRNNAMSFRRALLRYRDGAKVHLGTRPDEKQYDTVETQLRFMTENGFSLRDGLYAISAVSHFTLGAVLEQQEHTAALTDRPAAPDENLPPLLREALQIMDSDDGEQAFLHGLESLIRGFEVQLTALLQIV | 65.0174 | 1.9046 |
| TetRrevAF7/2: revTetR(BD) L14V E15V E23D K48K G96L G102A (protein, Modified tetracycline repressor, revTetR(BD) L14V E15V E23D K48K G96L G102A) MSRLDKSKVINSAVVLLNEVGIDGLTTRKLAQKLGVEQPTLYWHVKNKRALLDALAVEILARHHDYSLPAAGESWQSFLRNNAMSFRRALLRYRDLAKVHLATRPDEKQYDTVETQLRFMTENGFSLRDGLYAISAVSHFTLGAVLEQQEHTAALTDRPAAPDENLPPLLREALQIMDSDDGEQAFLHGLESLIRGFEVQLTALLQIV | 58.8637 | 3.7321 |
| TetRrevAF2/15: revTetR(BD) V20G I22N R49Q A50T (protein, Modified tetracycline repressor, revTetR(BD) V20G I22N R49Q A50T) MSRLDKSKVINSALELLNEGGNEGLTTRKLAQKLGVEQPTLYWHVKNKQTLLDALAVEILARHHDYSLPAAGESWQSFLRNNAMSFRRALLRYRDGAKVHLGTRPDEKQYDTVETQLRFMTENGFSLRDGLYAISAVSHFTLGAVLEQQEHTAALTDRPAAPDENLPPLLREALQIMDSDDGEQAFLHGLESLIRGFEVQLTALLQIV | 82.5755 | 2.828 |
| TetRrevAtc4-11: revTetR(BD) L55L A56P R62S (protein, Modified tetracycline repressor, revTetR(BD) L55L A56P R62S) MSRLDKSKVINSALELLNEVGIEGLTTRKLAQKLGVEQPTLYWHVKNKRALLDALPVEILASHHDYSLPAAGESWQSFLRNNAMSFRRALLRYRDGAKVHLGTRPDEKQYDTVETQLRFMTENGFSLRDGLYAISAVSHFTLGAVLEQQEHTAALTDRPAAPDENLPPLLREALQIMDSDDGEQAFLHGLESLIRGFEVQLTALLQIV | 103.132 | 17.479 |
| TetRrevAF2/16: revTetR(BD) E19V Y93C D95Y A97T K98N V99L L101L (protein, Modified tetracycline repressor, revTetR(BD) E19V Y93C D95Y A97T K98N V99L L101L) MSRLDKSKVINSALELLNVVGIEGLTTRKLAQKLGVEQPTLYWHVKNKRALLDALAVEILARHHDYSLPAAGESWQSFLRNNAMSFRRALLRCRYGTNLHLGTRPDEKQYDTVETQLRFMTENGFSLRDGLYAISAVSHFTLGAVLEQQEHTAALTDRPAAPDENLPPLLREALQIMDSDDGEQAFLHGLESLIRGFEVQLTALLQIV | 90.6438 | 2.622 |
| TetRrevAD3/6: revTetR(BD) V20G A56P I59L R62R (protein, Modified tetracycline repressor, revTetR(BD) V20G A56P I59L R62R) MSRLDKSKVINSALELLNEGGIEGLTTRKLAQKLGVEQPTLYWHVKNKRALLDALPVELLARHHDYSLPAAGESWQSFLRNNAMSFRRALLRYRDGAKVHLGTRPDEKQYDTVETQLRFMTENGFSLRDGLYAISAVSHFTLGAVLEQQEHTAALTDRPAAPDENLPPLLREALQIMDSDDGEQAFLHGLESLIRGFEVQLTALLQIV | 93.0552 | 1.6494 |
| TetRrevAD3/5: revTetR(BD) L17L N18K E19V I22T 53Y A54S (protein, Modified tetracycline repressor, revTetR(BD) L17L N18K E19V I22T 53Y A54S) MSRLDKSKVINSALELLKVVGTEGLTTRKLAQKLGVEQPTLYWHVKNKRALLYSLAVEILARHHDYSLPAAGESWQSFLRNNAMSFRRALLRYRDGAKVHLGTRPDEKQYDTVETQLRFMTENGFSLRDGLYAISAVSHFTLGAVLEQQEHTAALTDRPAAPDENLPPLLREALQIMDSDDGEQAFLHGLESLIRGFEVQLTALLQIV | 89.8129 | 1.1481 |
| TetRrevAF2/14: revTetR(BD) L14L E15A L16L L17V N18N; V20V G96V (protein, Modified tetracycline repressor, revTetR(BD) L14L E15A L16L L17V N18N; V20V G96V) MSRLDKSKVINSALALVNEVGIEGLTTRKLAQKLGVEQPTLYWHVKNKRALLDALAVEILARHHDYSLPAAGESWQSFLRNNAMSFRRALLRYRDVAKVHLGTRPDEKQYDTVETQLRFMTENGFSLRDGLYAISAVSHFTLGAVLEQQEHTAALTDRPAAPDENLPPLLREALQIMDSDDGEQAFLHGLESLIRGFEVQLTALLQIV | 90.5688 | 1.239 |
| TetRrevAD3/7: revTetR(BD) L17M E19D L52L D53Y A54A A56E (protein, Modified tetracycline repressor, revTetR(BD) L17M E19D L52L D53Y A54A A56E) MSRLDKSKVINSALELMNDVGIEGLTTRKLAQKLGVEQPTLYWHVKNKRALLYALEVEILARHHDYSLPAAGESWQSFLRNNAMSFRRALLRYRDGAKVHLGTRPDEKQYDTVETQLRFMTENGFSLRDGLYAISAVSHFTLGAVLEQQEHTAALTDRPAAPDENLPPLLREALQIMDSDDGEQAFLHGLESLIRGFEVQLTALLQIV | 73.4537 | 2.4531 |
| TetRrevAF7/1: revTetR(BD) Y93C G96R K98N (protein, Modified tetracycline repressor, revTetR(BD) Y93C G96R K98N) MSRLDKSKVINSALELLNEVGIEGLTTRKLAQKLGVEQPTLYWHVKNKRALLDALAVEILARHHDYSLPAAGESWQSFLRNNAMSFRRALLRCRDRANVHLGTRPDEKQYDTVETQLRFMTENGFSLRDGLYAISAVSHFTLGAVLEQQEHTAALTDRPAAPDENLPPLLREALQIMDSDDGEQAFLHGLESLIRGFEVQLTALLQIV | 89.3536 | 1.3792 |
| TetRrevAF3/5: revTetR(BD) V20F G21R R49S (protein, Modified tetracycline repressor, revTetR(BD) V20F G21R R49S) MSRLDKSKVINSALELLNEFRIEGLTTRKLAQKLGVEQPTLYWHVKNKSTLLDALAVEILARHHDYSLPAAGESWQSFLRNNAMSFRRALLRYRDGAKVHLGTRPDEKQYDTVETQLRFMTENGFSLRDGLYAISAVSHFTLGAVLEQQEHTAALTDRPAAPDENLPPLLREALQIMDSDDGEQAFLHGLESLIRGFEVQLTALLQIV | 101.824 | 4.696 |
